In article PMC2229591 one finds stoichiometry N and concentration that gives half-maximum binding data, which are given here for two substances.

The stoichiometry N is a count of units in the complex or per binding partner.

Test [1] addresses filamentous actin (rabbit muscle) (rabbit) (UniProt P68135). Description: co-sedimentation. Particulars: scale: actin per fragment.
The target of test [2] is C0 fragment of cardiac myosin binding protein C (MyBP-C) (human). Description: pull-down + co-IP.

As for “C0C2 fragment of cardiac MyBP-C (domain or fragment)”, the stoichiometry N in test [1] turned out to be 7. Take “filamentous actin (rabbit muscle) (from UniProt P68135 1-377) (natural protein)”: the concentration that gives half-maximum binding in test [2] is under 10 µM.
